Results on one protein are retold here after paper PMC5498717, “Linking functions: an additional role for an intrinsically disordered linker domain in the transcriptional coactivator CBP” (Scientific Reports, 2017).

The data set deals with the molecule itself. Description: cross-linking; BS3 0.25 mM, 15 min at RT in PBS with 1 mM DTT, proteins mixed about 1:1; SDS-PAGE, anti-His and anti-GST Western blots.

B1: ZFP106-f (residues 1265-1521 of ZFP106), His-tagged (domain or fragment, human, UniProt Q9H2Y7 1265-1521, looked up)
chain: KFSVEQRNTRNRENSPSSQSAGLSSINKEGEEPTKGNSGSEACTSSFLRLSFASETPLEKEPHSPADQPEQQAESTLTSAETRGSKKKKKLRKKKSLRAAHVPENSDTEQDVLTVKPVRKVKAGKLIKGGKVTTSTWEDSRTGREQESVRDEPDSDSSLEVLEIPNPQLEVVAIDSSESGEEKPDSPSKKDIWNSTEQNPLETSRSGCDEVSSTSEIGTRYKDGIPVSVAETQTVISSIKGSKNSSEISSEPGDDDE
notes: The His tag is named for the cross-linking and detected by anti-His blot there and in the acetylation assays; also called wt ZFP106-f; His-tagged ZFP106-f
As a reminder, the stoichiometry N is the number of molecules, sites or subunits per partner or assembly. As to B1, the “stoichiometry N” value amounted to 2.
